Measured values reported in publication PMC6213131, “Characterization of Properties and Transglycosylation Abilities of Recombinant α-Galactosidase from Cold-Adapted Marine Bacterium Pseudoalteromonas KMM 701 and Its C494N and D451A Mutants” (Marine Drugs, 2018).

Substrate: O=[N+]([O-])c1ccc(O[C@H]2O[C@H](CO)[C@H](O)[C@H](O)[C@H]2O)cc1
Assay: purified protein
Type: biochemical, Pseudoalteromonas sp. KMM 701
Conditions: sodium phosphate (0.05 M in table footnote, 0.1 M in methods), pH 7.0, 20 °C

| Protein | Km [µM] | Vmax [µM/min] | kcat [s⁻¹] | kcat/Km [M⁻¹ s⁻¹] |
| --- | --- | --- | --- | --- |
| α-PsGal (Pseudoalteromonas sp. KMM 701) (protein, mature ca. 80 kDa; E. coli Rosetta (DE3); GH36) MADTKSFYRLDSVNSTVIFDCQSKTPALLYFGKRLSEQTTETMLTQLATRQEVKCAVVEEAPISLSPLLGEGFTGAPGLELVNDSIAWSVGPELQEVRQPSSATVEFVSVDKLRGIEVVHSITLDNNSDVLSAHTVLTNLGDSPLSVNFCAAPTFQLPDSVSKIVSFEGRWSNEFQRQSVDLVLGSFVRENRKGKTSHDVFPGLLVHNENAGEQHGECYGFHLGWSGNNKLRAELLAEGRRYVQMGELLLPGELTLAKGQTYQSPSIYGSFSSEGFSALSRNFHRFVKANLLSQAQREKARPVHYNTWEGIYFDHDVDTLKQLADKVAPLGIERFVLDDGWFKGRRGDNAGLGDWTVDYKIYPDGLSPVIDHVNSLGMEFGIWFEPEMVNPDSDLYRAHPDWVLGSENNEQLSFRNQLVLDLTRSEVVEYLYKAIDDILVEYPTIKYIKWDMNRDINHAGNFDGKPAVHQQTLALYRLIDRIKAAHPGLEIESCSSGGARVDYGVLAHTDRVWTSDSNDALDRLEIQRGCSFFFPSSVMGAHVGPRDCHITGRNVSIEMRAAVSMFGHMGIEMDPRELNDHEYNALKAAIALHKEHREFIHSADLYRLDSDDLSINFGLIDAQKTKALFAYNSVRETPRTAPNKLRFVGLDADAQYTLNLVWPVKFEEYRPSSIAAVNGQTFTGEALMQFGLQMPISFPQTSLIFELNKA | 400 ± 30 | 320 | 324 ± 3.5 | 820000 |
| α-PsGal (Pseudoalteromonas sp. KMM 701; C494N) (protein, mature ca. 80 kDa; E. coli Rosetta (DE3); GH36) MADTKSFYRLDSVNSTVIFDCQSKTPALLYFGKRLSEQTTETMLTQLATRQEVKCAVVEEAPISLSPLLGEGFTGAPGLELVNDSIAWSVGPELQEVRQPSSATVEFVSVDKLRGIEVVHSITLDNNSDVLSAHTVLTNLGDSPLSVNFCAAPTFQLPDSVSKIVSFEGRWSNEFQRQSVDLVLGSFVRENRKGKTSHDVFPGLLVHNENAGEQHGECYGFHLGWSGNNKLRAELLAEGRRYVQMGELLLPGELTLAKGQTYQSPSIYGSFSSEGFSALSRNFHRFVKANLLSQAQREKARPVHYNTWEGIYFDHDVDTLKQLADKVAPLGIERFVLDDGWFKGRRGDNAGLGDWTVDYKIYPDGLSPVIDHVNSLGMEFGIWFEPEMVNPDSDLYRAHPDWVLGSENNEQLSFRNQLVLDLTRSEVVEYLYKAIDDILVEYPTIKYIKWDMNRDINHAGNFDGKPAVHQQTLALYRLIDRIKAAHPGLEIESNSSGGARVDYGVLAHTDRVWTSDSNDALDRLEIQRGCSFFFPSSVMGAHVGPRDCHITGRNVSIEMRAAVSMFGHMGIEMDPRELNDHEYNALKAAIALHKEHREFIHSADLYRLDSDDLSINFGLIDAQKTKALFAYNSVRETPRTAPNKLRFVGLDADAQYTLNLVWPVKFEEYRPSSIAAVNGQTFTGEALMQFGLQMPISFPQTSLIFELNKA | 300 ± 5 | 24 | – | – |
